Our source for the self-cleavage values is the RNAGym collection of RNA variant scans (doi:10.7554/elife.90254).

B1: LINE1-full (parent)
chain: UACGUAGGUGGUUUUCCCCUGAUAGUGCUAAGGGGGCCUGGAAGUUUGGACUGGGCAGAGCUCAACACAGCGUGGCAAAGUGGCUGUGGCUAGACUGCCUCUCUGGAUUCCUCGUCACUCAGCAGGGCAUCUCUGAGAGAAAUGCC

In this data set the parent is B1. In words: self-cleavage, relative activity (ratio to wild type); higher = more cleavage; in vitro, sequencing; the parent is a self-cleaving ribozyme.
Turning to U5G U12C, the self-cleavage was 0.77.
Then A6G C146U, with 1.05.
Take U5G A107G: the self-cleavage is 0.86.
With A6G G32A, the self-cleavage stood at 0.68.
Consider A6G G41U, for which the self-cleavage was determined as 0.46.
With U5C U9C, the self-cleavage was found to be 1.28.
U5C U9A: the self-cleavage was 0.74.
As for U5C A59G, the self-cleavage is 0.32.
Take A6G G144A: the self-cleavage was 1.21.
On to U5C G36A, for which the self-cleavage worked out at 0.4.
Consider U5C G74U, for which the self-cleavage was 0.38.
As to U5C C146U, the self-cleavage turned out to be 0.69.
Take A6G G21U: the self-cleavage was 0.53.
In the case of U5C G25A it was 1.34; in that of U5C A138C, 0.
On to U5C G105A, for which the self-cleavage stood at 1.16.
Turning to U5C G105U, the self-cleavage turned out to be 1.32.
A6G A129U: the self-cleavage came out at 0.6.
As to A6G A129G, the self-cleavage stood at 0.26.
Take A6C U85G: the self-cleavage was determined as 0.46.
In the case of U5C U100C it was 1.52; in that of A6G G33A, 0.49.
In the case of U5C C90U, the self-cleavage is 0.11.
With A6G C56U, the self-cleavage was determined as 0.27.
Regarding U5C U26G, the self-cleavage was 0.47.
In the case of U5G A121G it was 0.84; in that of A6G A142G, 1.01; in that of A6G A107G, 0.74.
Then A6G A31U, with 1.01.
On to U5G A64G, for which the self-cleavage was 0.23.
A6G G127A: the self-cleavage stood at 0.46.
A6G U9A: the self-cleavage came to 0.75.
For U5C A57C, the self-cleavage stood at 0.49.
In the case of A6C A22G it was 0.46; in that of U5C U14A, 0.86.
As for A6G U15G, the self-cleavage was 0.97.
U5C G114A: the self-cleavage was 0.96.
In the case of A6G A79G it was 0.8; in that of A6G U14A, 0.95; in that of A6G A67G, 0.39.
On to A6G A67U, for which the self-cleavage worked out at 0.68.
As for U5C A79G, the self-cleavage was 1.15.
Then U5C U109C, with 0.91; and U5C C71U, with 0.68; and U5C C18G, with 0.99.
Consider U5G A67U, for which the self-cleavage was found to be 0.31.
On to U5C U45A, for which the self-cleavage was determined as 0.74.
Turning to U5C U45C, the self-cleavage was 1.32.
With U5C A94G, the self-cleavage worked out at 0.46.
Then U5G U132C, with 1.04.
Take U5C U119A: the self-cleavage came to 0.98.
As to U5C G32A, the self-cleavage stood at 1.06.
Regarding U5C U87C, the self-cleavage is 0.15.
Consider A6C G35A, for which the self-cleavage was 1.5.
In the case of U5C A31U it was 0.78.
Turning to U5C A31C, the self-cleavage was determined as 0.75.
In the case of A6G C101A it was 0.56; in that of A6G A92U, 1.23.
Regarding A6G A92G, the self-cleavage turned out to be 0.22.
Then U5C A67U, with 0.47; and U5C A124G, with 1.15.
Then U5C A124C, with 0.8.
U5C A121U: the self-cleavage was 0.86.
As for U5C A121G, the self-cleavage was found to be 1.28.
Consider U5C A30G, for which the self-cleavage was determined as 0.74.
Take U5C A30C: the self-cleavage amounted to 0.28.
Then U5C G10A, with 0.51; and U5C G135A, with 0.96.
As for U5C A42G, the self-cleavage came to 0.75.
As for U5C A42U, the self-cleavage is 1.04.
Consider A6G A69G, for which the self-cleavage is 0.32.
For A6G A69U, the self-cleavage was determined as 0.22.
On to U5C U102C, for which the self-cleavage was determined as 1.
For U5C U13A, the self-cleavage was determined as 1.67.
Then U5C U62C, with 0.07.
U5C A50G: the self-cleavage came to 1.01.
U5C G82A: the self-cleavage stood at 1.18.
Take A6G A22G: the self-cleavage came to 1.19.
With U5C U12G, the self-cleavage came to 1.34.
With U5C U12C, the self-cleavage was 0.86.
As to U5C G80A, the self-cleavage worked out at 2.24.
A6G C38U: the self-cleavage was 1.62.
In the case of A6C, the self-cleavage came to 1.08.
Take A6G: the self-cleavage was 0.91.
Regarding A6C A31U, the self-cleavage is 0.
As to U5C U115C, the self-cleavage is 1.27.
For the variant U5C U115A, the self-cleavage was 0.91.
Then A6G U12C, with 0.73.
As for A6G U12G, the self-cleavage turned out to be 0.85.
With U5C U85C, the self-cleavage came to 0.27.
Take U5C U85A: the self-cleavage was 0.21.
U5C U15C: the self-cleavage is 1.
For A6C U115A, the self-cleavage was 0.8.
In the case of U5C G126A, the self-cleavage worked out at 1.36.
Turning to A6G A78G, the self-cleavage amounted to 1.15.
In the case of U5C G33A it was 1.45; in that of A6G G106A, 0.66.
With A6G G106U, the self-cleavage was found to be 1.06.
With A6G A140G, the self-cleavage turned out to be 0.69.
A6G A140U: the self-cleavage is 0.77.
On to U5C A69U, for which the self-cleavage was 0.14.
For the variant U5C U91C, the self-cleavage is 0.48.
Consider U5C G97A, for which the self-cleavage is 0.
With U5C G53U, the self-cleavage came out at 0.88.
As for A6G G74A, the self-cleavage came to 0.4.
Turning to U5C G89U, the self-cleavage was 0.16.
Then U5C U23G, with 1.53; and A6G C113A, with 1.18; and A6G C113U, with 0.84.
Regarding A6G G48A, the self-cleavage stood at 0.22.
Take A6G G25A: the self-cleavage turned out to be 0.1.
As to A6G G25U, the self-cleavage amounted to 0.69.
With A6G G122A, the self-cleavage was found to be 0.55.
Turning to U5C C95G, the self-cleavage is 0.17.
As for U5C G27A, the self-cleavage was found to be 0.17.
Turning to U5C U81G, the self-cleavage amounted to 1.31.
For the variant U5C U81A, the self-cleavage amounted to 1.56.
As for U5C A142C, the self-cleavage was 0.98.
U5G A141C: the self-cleavage came out at 0.56.
Regarding A6G A117U, the self-cleavage was 2.04.
In the case of A6G A117G, the self-cleavage was determined as 1.41.
In the case of A6C A124U, the self-cleavage stood at 1.13.
In the case of U5C U104A it was 1.28.
Then U5C G55A, with 0.5.
Turning to A6G A64G, the self-cleavage turned out to be 0.62.
In the case of U5C A107G it was 1.13.
For U5C U39C, the self-cleavage stood at 1.05.
Regarding U5C U39A, the self-cleavage came out at 0.91.
Regarding U5C U46C, the self-cleavage was 0.99.
Consider A6C U96A, for which the self-cleavage came to 0.17.
For the variant A6C U45C, the self-cleavage amounted to 1.18.
U5C A141U: the self-cleavage was 0.73.
As for A6G A65G, the self-cleavage amounted to 0.09.
U5C C123U: the self-cleavage is 0.45.
With U5C A140G, the self-cleavage was 1.12.
As to A6G A50U, the self-cleavage is 0.51.
On to A6G A50G, for which the self-cleavage came to 0.77.
Then A6G A50C, with 1.23; and U5C U130C, with 1.4; and A6G G126A, with 0.99.
Then U5C C19U, with 1; and U5C C19A, with 0.8; and A6G G93A, with 0.14.
Consider U5C C116A, for which the self-cleavage was 1.29.
With U5C U108C, the self-cleavage was 1.57.
In the case of U5C U108G, the self-cleavage amounted to 1.88.
With U5C A78U, the self-cleavage was determined as 1.9.
A6G G125A: the self-cleavage came out at 0.77.
Turning to A6G C17U, the self-cleavage came to 0.28.
Take U5C A129G: the self-cleavage is 1.43.
Then A6G G97A, with 0.18; and A6G C37A, with 0.76.
With U5G A124U, the self-cleavage was found to be 0.96.
U5C U132C: the self-cleavage was found to be 0.86.
Turning to U5C U73C, the self-cleavage was 1.16.
As to A6G A43U, the self-cleavage was determined as 0.85.
For the variant U5G U112C, the self-cleavage worked out at 0.51.
Consider A6G C133U, for which the self-cleavage was determined as 0.59.
Then U5C U20C, with 1.09; and U5C U20A, with 0.84.
In the case of U5C A77U it was 0.73; in that of U5C A77G, 1.49; in that of U5G U13C, 0.83.
Consider A6C U119A, for which the self-cleavage was 1.36.
In the case of U5C G144A, the self-cleavage was 1.39.
For U5C C113A, the self-cleavage stood at 0.36.
In the case of U5G, the self-cleavage was 0.76.
